In US9555076B2, “Neuregulin based methods and compositions for treating cardiovascular diseases” (Zensun (Shanghai) Science & Technology, Co., Ltd., priority 2002, dated 2017):
Several values for one entry are separate records, joined by “and”; a condition that tells them apart may be missing. Equal entries are not always repeated.

How the values were obtained:
[1] = system: heart failure in rat caused by ligation of coronary artery; test: Echocardiography heart function, heart failure by ligation of coronary artery; format: in vivo, SD rat
Protocol: Route of drug administration: in both testing drug group and model group the drug was injected into the tail vein once per day for consecutive 5 days. Echocardiography was performed at the 6th day prior to drug administration, then continuously injected for 5 days. Volume of each drug injection was 0.4 ml/100 g body weight.
After anesthesia with intra-abdominal injection of 100 mg/kg ketamine, the rat was fixed on rat plate in supine position, disinfection of the neck region with bromo-geramine was carried out after depilating. Midline incision was made, trachea was found after separating the anterior cervical muscle, 18 G arterial indwelling trochar was inserted into the trachea at the level of 3-5 tracheal cartilage, took out the stylet, push the plastic cannula 1-2 cm further into the trachea, fixed it for later connection with ventilator for small animal (tidal volume was about […], frequency was 80/min). […] Then closed the chest wall, block the opening of the ventilator to inflate the lungs, forcefully pressed the chest to drive out the air, then sutured the chest muscle and skin. Monitoring the respiration, after spontaneous respiration recovered, withdrawn the ventilator, took the animal back to its cage for breeding. In the pseudo-operation group, only the pericardium was tore open, but without the coronary artery ligation.
Echocardiograph was performed for the operated rat at about 6 days postoperatively, those animals with about 50% reduction of EF value were randomly divided into groups, the EF value of each group was all about 50%, then drug administration began.
Those animals with EF value of about 50% were randomly divided into model group (negative group) and 3-dosage level testing drug groups with 12-13 animals in each group. Route of drug administration in testing drug group and model group was injection into the tail vein, once every day for consecutive 5 days. After echocardiography at the 6th day, another 5 days of consecutive drug administration was carried out. Drug volume of each injection was 0.4 ml/100 g body weight.
Echocardiography was performed under anesthesia with ketamine after the legation and prior to drug administration and at the 6th day, 11th day of drug administration, the major index included: • EF: heart ejection fraction, reflecting ejection function of ventricle; • FS: ventricular short axis shortening rate, reflecting contraction function of ventricle; • LVDd: diastolic maximal inner diameter of left ventricle (cm); • LVDs: systolic minimal inner diameter of left ventricle (cm). 6.3.3.2 Determination of the Content of Plasma Renin-angiotensin-aldosterone

[2] = system: heart failure in rat caused by ligation of coronary artery; test: Capillary counting in myocardial fibrotic area (HE, image analysis); format: in vivo, SD rat
Source text: After fixed with 10% formaldehyde, myocardium of the rat was longitudinally cut with equal distance into 3 slices, conventionally embedded with paraffin, section made, HE stained, image analysis for area of fibrotic region of the heart, counted the number of capillary in the fibrotic lesion (counting unit: piece/mm^2); Nagar-Oslen stained, studied the size of ischemic hypoxic region in the myocardium.

[3] = 5 μg/kg group, prior to drug administration, (1)
[4] = 5 μg/kg iv 10 qd, 10 days after the drug administration, (II)
[5] = 5 μg/kg iv qd × 5, 5 days after the drug administration, (1)
[6] = 5 μg/kg iv qd × 5, 5 days after the drug administration, (II)
[7] = 5 μg/kg iv qd × 10, 10 days after the drug administration, (1)
[8] = 5 μg/kg, Table 4, titled 10 days after the drug administration, (II)
[9] = 10 μg/kg group, prior to drug administration, (1)
[10] = 10 μg/kg iv 10 qd, 10 days after the drug administration, (II)
[11] = 10 μg/kg iv qd × 5, 5 days after the drug administration, (1)
[12] = 10 μg/kg iv qd × 5, 5 days after the drug administration, (II)
[13] = 10 μg/kg iv qd × 10, 10 days after the drug administration, (1)
[14] = 10 μg/kg, Table 4, titled 10 days after the drug administration, (II)
[15] = 20 μg/kg group, prior to drug administration, (1)
[16] = 20 μg/kg iv 10 qd, 10 days after the drug administration, (II)
[17] = 20 μg/kg iv qd × 5, 5 days after the drug administration, (1)
[18] = 20 μg/kg iv qd × 5, 5 days after the drug administration, (II)
[19] = 20 μg/kg iv qd × 10, 10 days after the drug administration, (1)
[20] = 20 μg/kg, Table 4, titled 10 days after the drug administration, (II)

B1: rhNRG-1 β: Recombinant human neuregulin fragment of 61 amino acid (SEQ ID NO:4), 3 disulfide bonds, expressed in E. coli (protein, listed as Homo sapiens)
chain: SHLVKCAEKEKTFCVNGGECFMVKDLSNPSRYLCKCPNEFTGDRCQNYVMASFYKAEELYQ
modifications: disulfide (positions not given here)
[1]; [3]
  EF: 49.3%
  FS: 22.0%
  LVDd: 0.761 cm
  LVDs: 0.596 cm
[1]; [4]
  EF: 57.90%
  FS: 29.26%
  LVDd: 0.70 cm
  LVDs: 0.53 cm
[1]; [5]
  EF: 62.9±8.4% and 62.90%
  FS: 30.3±6.1% and 30.32%
  LVDd: 0.73 cm
  LVDs: 0.54 cm
[1]; [6]
  EF: 56.76%
  FS: 28.35%
  LVDd: 0.74 cm
  LVDs: 0.58 cm
[1]; [7]
  EF: 59.2±12.4% and 59.2%
  FS: 28.4±8.6% and 28.4%
  LVDd: 0.72 cm
  LVDs: 0.55 cm
[1]; 5 μg/kg, 5-day after drug administration and 35-day after drug withdrawal
  EF value: 69.9 ± 28.6%
[1]; 5 μg/kg, 5-day after drug administration, long-term monitoring
  EF value: 75.8 ± 15.3%
[1]; [8]
  EF: 50.81%
  FS: 22.83%
  LVDd: 0.66 cm
  LVDs: 0.51 cm
[1]; [9]
  EF: 49.5%
  FS: 22.1%
  LVDd: 0.709 cm
  LVDs: 0.555 cm
[1]; [10]
  EF: 66.54%
  FS: 34.28%
  LVDd: 0.68 cm
  LVDs: 0.49 cm
[1]; [11]
  EF: 64.4±12.9% and 64.3±12.8% and 64.35%
  FS: 32.0±9.5% and 32.01%
  LVDd: 0.71 cm
  LVDs: 0.51 cm
[1]; [12]
  EF: 56.51%
  FS: 26.53%
  LVDd: 0.72 cm
  LVDs: 0.54 cm
[1]; [13]
  EF: 61.4±15.0% and 61.4%
  FS: 30.3±10.4% and 30.3%
  LVDd: 0.7 cm
  LVDs: 0.51 cm
[1]; 10 μg/kg, 5-day after drug administration and 35-day after drug withdrawal
  EF value: 63.8 ± 23.8%
[1]; 10 μg/kg, 5-day after drug administration, long-term monitoring
  EF value: 77.3 ± 11.6%
[1]; [14]
  EF: 51.67%
  FS: 23.27%
  LVDd: 0.64 cm
  LVDs: 0.49 cm
[1]; 10 μg/kg, after ligation prior to drug administration, long-term monitoring
  EF value: 52.2 ± 12.8%
[1]; [15]
  EF: 49.3%
  FS: 21.7%
  LVDd: 0.730 cm
  LVDs: 0.575 cm
[1]; [16]
  EF: 70.22%
  FS: 36.49%
  LVDd: 0.65 cm
  LVDs: 0.42 cm
[1]; [17]
  EF: 71.1±12.0% and 71.07%
  FS: 36.9±9.7% and 36.88%
  LVDd: 0.70 cm
  LVDs: 0.46 cm
[1]; [18]
  EF: 65.47%
  FS: 34.23%
  LVDd: 0.68 cm
  LVDs: 0.46 cm
[1]; [19]
  EF: 75.7±10.8% and 75.7%
  FS: 41.3±11.0% and 41.3%
  LVDd: 0.6 cm
  LVDs: 0.5 cm
[1]; 20 μg/kg, 5-day after drug administration, long-term monitoring
  EF value: 79.2 ± 4.7 %
[1]; [20]
  EF: 52.29%
  FS: 23.89%
  LVDd: 0.74 cm
  LVDs: 0.56 cm
[1]; 20 μg/kg, after ligation prior to drug administration, long-term monitoring
  EF value: 52.4 ± 13.8%
[2]; 5 μg/kg iv qd x 10
  Capillary counting (I): 9.35 ± 4.2 piece/mm^2
  Capillary counting (II): 15.0 ± 6.9 piece/mm^2
[2]; 10 μg/kg iv qd x 10
  Capillary counting (I): 8.99 ± 3.3 piece/mm^2
  Capillary counting (II): 19.6 ± 8.5 piece/mm^2
[2]; 20 μg/kg iv qd x 10
  Capillary counting (I): 10.12 ± 3.0 piece/mm^2
  Capillary counting (II): 24.6 ± 9.5 piece/mm^2
